# Measurements from article PMC8209278 (iScience, 2021).
# B1: GST-fused full length Suv4-20h2 (enzyme)
# chain: not shown
# Tests used:
# [1] = biological target: Purified recombinant viral PB2 protein (influenza virus A/Puerto Rico/8/34 …, UniProt P03428 1-759); test: pull-down
# [2] = biological target: Purified recombinant viral NP protein (influenza virus A/Puerto Rico/8/34 …, UniProt P03466 1-498); test: pull-down
# Chain of Purified recombinant viral NP protein (P03466 whole entry): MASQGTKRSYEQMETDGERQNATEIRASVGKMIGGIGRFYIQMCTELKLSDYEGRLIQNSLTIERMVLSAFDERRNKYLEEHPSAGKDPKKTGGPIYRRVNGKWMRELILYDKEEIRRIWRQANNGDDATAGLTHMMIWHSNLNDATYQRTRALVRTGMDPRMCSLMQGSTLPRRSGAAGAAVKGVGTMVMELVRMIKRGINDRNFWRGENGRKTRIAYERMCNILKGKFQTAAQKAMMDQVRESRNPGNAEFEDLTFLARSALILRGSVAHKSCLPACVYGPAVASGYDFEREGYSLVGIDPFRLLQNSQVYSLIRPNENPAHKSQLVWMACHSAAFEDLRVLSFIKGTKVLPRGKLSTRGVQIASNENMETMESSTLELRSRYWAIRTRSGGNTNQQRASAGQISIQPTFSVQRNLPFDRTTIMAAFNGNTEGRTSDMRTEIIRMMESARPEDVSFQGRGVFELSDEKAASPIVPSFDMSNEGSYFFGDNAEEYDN
binder,measurement,setting,value
B1,binding result,[1],binds
same,binding result,[2],binds
